Laboratory results: paper PMC4551915, “Bacteriophage GIL01 gp7 interacts with host LexA repressor to enhance DNA binding and inhibit RecA-mediated auto-cleavage” (Nucleic Acids Research, 2015)
Changes are numbered by the printed parent chain. Where no end group is shown, it is not given here.

T1: His6-gp7 (Bacillus phage GIL01) (UniProt Q7WSG2)
T1 sequence: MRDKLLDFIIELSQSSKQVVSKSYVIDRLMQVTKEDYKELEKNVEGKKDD

T2: His6-LexA (Bacillus thuringiensis LexA repressor) (B. thuringiensis, UniProt A0RH75 1-206)
T2 construct: LexA, SOS transcription repressor of Bacillus thuringiensis; insert defined by nucleotide coordinates 3 624 082 through 3 624 714 in B. cereus strain G9842 (GenBank NC_011772), cloned BamHI-HindIII into pQE-30; also called His-tagged LexA; B. thuringiensis LexA repressor; source: E. coli M15 [pREP4], pQE-30, purified (Ni-NTA); not shown: His6, N-terminal, kept
T2 sequence (looked up): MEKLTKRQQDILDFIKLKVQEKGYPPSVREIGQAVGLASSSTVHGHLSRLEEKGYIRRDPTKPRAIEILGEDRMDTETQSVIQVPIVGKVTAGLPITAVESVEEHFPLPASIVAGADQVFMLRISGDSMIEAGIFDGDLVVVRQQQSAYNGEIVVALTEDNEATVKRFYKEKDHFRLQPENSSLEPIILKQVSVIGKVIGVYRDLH

T3: His6-gp7 (Bacillus phage GIL01, UniProt Q7WSG2 1-50)
T3 chain: T1 sequence

B1: SPR Wt (dinBox1+dinBox1b) (dsDNA)
DNA 1: GTTACTACTCGAGCGTTAAAAAACGAACAAGCGTTTTATAAGTGTTCGGTTTTTGTA
DNA 2: TACAAAAACCGAACACTTATAAAACGCTTGTTCGTTTTTTAA
DNA 3: CGCTCGAGTAGTAAC
B2: SPR B21 (dinBox1b single mutant) (dsDNA)
DNA 1: B1 DNA 1 with G48A
DNA 2: B1 DNA 2 with C10T
DNA 3: CGCTCGAGTAGTAAC
B3: SPR B22 (dinBox1b double mutant) (dsDNA)
DNA 1: B1 DNA 1 with G44A, G48A
DNA 2: B1 DNA 2 with C10T, C14T
DNA 3: CGCTCGAGTAGTAAC
B4: SPR B12 (dinBox1 double mutant) (dsDNA)
DNA 1: B1 DNA 1 with G25T, G33T
DNA 2: B1 DNA 2 with C25A, C33A
DNA 3: CGCTCGAGTAGTAAC
B5: SPR Ns (non-specific; both boxes mutated) (dsDNA)
DNA 1: B1 DNA 1 with G25T, G33T, G44A, G48A
DNA 2: B1 DNA 2 with C10T, C14T, C25A, C33A
DNA 3: CGCTCGAGTAGTAAC
B6: SPR B11 (dinBox1 single mutant) (dsDNA)
DNA 1: B1 DNA 1 with G33T
DNA 2: B1 DNA 2 with C25A
DNA 3: CGCTCGAGTAGTAAC

Columns and labels:
[1] = target: T1, His6-gp7 (Bacillus phage GIL01); test: EMSA; conditions: EMSA/footprint: 80 mM NaCl, 25 mM Tris pH 7.5, 5 mM EDTA, 2 mM DTT, 0.1 mg/ml BSA, 0.05 ug/ul poly(dI-dC), room temp; SPR: 25 mM Tris-HCl pH 7.3, 140 mM NaCl …
[2] = target: T1, His6-gp7 (Bacillus phage GIL01); test: DNase I footprinting; conditions: EMSA/footprint: 80 mM NaCl, 25 mM Tris pH 7.5, 5 mM EDTA, 2 mM DTT, 0.1 mg/ml BSA, 0.05 ug/ul poly(dI-dC), room temp; SPR: 25 mM Tris-HCl pH 7.3, 140 mM NaCl …
[3] = target: T2, His6-LexA (Bacillus thuringiensis LexA …); test: SPR; Biacore T100, CM5 chip, His-tagged LexA covalently coupled (EDC/NHS, ~2000 RU), no DNA; His-tagged gp7 (1.6-50 nM, 360 s) or gp1 as analyte; 25°C, 30 μl/min, SPR buffer (25 mM Tris-HCl pH 7.3, 140 mM NaCl, 5 mM EDTA, 2 mM DTT, 0.1 mg/ml BSA, 0.005% P20); apparent KD from plot of response against concentration, assuming one gp7 monomer per LexA monomer; conditions: both partners purified
[4] = target: T3, His6-gp7; test: SPR; 300 nM gp7; EMSA/footprint: 80 mM NaCl, 25 mM Tris pH 7.5, 5 mM EDTA, 2 mM DTT, 0.1 mg/ml BSA, 0.05 ug/ul poly(dI-dC), room temp; SPR: 25 mM Tris-HCl pH 7.3, 140 mM NaCl, 5 mM EDTA, 2 mM DTT, 0.1 mg/ml BSA, 0.005% P20, 25 C; conditions: protein: recombinant; tags: N-terminal His6 (pQE-30); label: 3'-biotin on S1 anchor; 42 bp; 15 nt 5' overhang annealed to S1

Row | Molecule | binding result [4] | further results
1 | CCAAGGGTGCTATAATAGGAAATGAGTTAAAAAACGAACAAGCGTTTTATAAGTGTTCGGTTTTTGTAACATAACTGTAATATAAAAACATTTGCATTACTGGTAACTTTCGGGTAATATTGGTAGCAGAGAGGGACAAACGGGACAAATCGAGACACGATACATACTCTCTATACAAGTGAAAAGAAGGTGGTGCATAT (double strand) [P1 EMSA probe WT (-25 to +176)] | – | binding [1]: no binding
2 | GTGTGACAAGATATTCCAAGGGTGCTATAATAGGAAATGAGTTAAAAAACGAACAAGCGTTTTATAAGTGTTCGGTTTTTGTAACATAACTGTAATATAAAAACATTTGCATTACTGGTAACTTTCGGGTAATATTGGTAGCAGAGAGGGACAAACGGGACAAATCGAGACACGATACATACTCTCTATACAAGTGAAAAGAAGGTGGTGCATAT (double strand) [P1 footprint probe WT (-39 to +176)] | – | binding [2]: no binding
3 | His6-MRDKLLDFIIELSQSSKQVVSKSYVIDRLMQVTKEDYKELEKNVEGKKDD (natural protein) [His6-gp7 (bacteriophage GIL01 gp7, product of ORF7)] | – | Kd [3]: 17.7 nM
4 | B1 | no binding | –
5 | B2 | no binding | –
6 | B3 | no binding | –
7 | B4 | no binding | –
8 | B5 | no binding | –
9 | B6 | no binding | –
